In patent US20170030911:
Residue numbers refer to the chain shown, from its start. Names and notes keep the numbering of the source.

T1: native bovine biglycan, P21809
T1 chain: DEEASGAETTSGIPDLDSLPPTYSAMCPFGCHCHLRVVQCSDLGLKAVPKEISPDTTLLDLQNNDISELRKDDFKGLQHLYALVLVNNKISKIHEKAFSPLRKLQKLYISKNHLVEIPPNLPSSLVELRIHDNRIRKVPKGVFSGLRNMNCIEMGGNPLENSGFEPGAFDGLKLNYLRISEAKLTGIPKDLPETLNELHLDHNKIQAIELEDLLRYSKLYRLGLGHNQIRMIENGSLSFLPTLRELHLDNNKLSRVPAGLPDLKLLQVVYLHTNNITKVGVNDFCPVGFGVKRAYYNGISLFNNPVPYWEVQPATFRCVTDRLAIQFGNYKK

T2: recombinant human E-cadherin, P12830
T2 chain: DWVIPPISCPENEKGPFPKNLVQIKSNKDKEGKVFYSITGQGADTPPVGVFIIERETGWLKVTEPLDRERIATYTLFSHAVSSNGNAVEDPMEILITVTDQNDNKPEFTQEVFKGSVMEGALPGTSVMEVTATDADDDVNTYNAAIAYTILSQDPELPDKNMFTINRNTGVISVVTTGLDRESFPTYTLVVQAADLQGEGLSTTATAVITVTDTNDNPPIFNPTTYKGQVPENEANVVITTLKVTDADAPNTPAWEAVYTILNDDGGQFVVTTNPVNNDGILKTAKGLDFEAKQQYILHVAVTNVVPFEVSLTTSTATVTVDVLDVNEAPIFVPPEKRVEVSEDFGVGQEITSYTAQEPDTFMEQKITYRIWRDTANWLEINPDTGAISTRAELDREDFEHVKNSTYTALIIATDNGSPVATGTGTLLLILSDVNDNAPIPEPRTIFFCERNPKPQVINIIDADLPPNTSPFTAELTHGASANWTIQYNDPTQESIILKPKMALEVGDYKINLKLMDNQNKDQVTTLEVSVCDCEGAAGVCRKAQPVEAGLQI

T3: recombinant human brevican, Q96GW7
T3 chain: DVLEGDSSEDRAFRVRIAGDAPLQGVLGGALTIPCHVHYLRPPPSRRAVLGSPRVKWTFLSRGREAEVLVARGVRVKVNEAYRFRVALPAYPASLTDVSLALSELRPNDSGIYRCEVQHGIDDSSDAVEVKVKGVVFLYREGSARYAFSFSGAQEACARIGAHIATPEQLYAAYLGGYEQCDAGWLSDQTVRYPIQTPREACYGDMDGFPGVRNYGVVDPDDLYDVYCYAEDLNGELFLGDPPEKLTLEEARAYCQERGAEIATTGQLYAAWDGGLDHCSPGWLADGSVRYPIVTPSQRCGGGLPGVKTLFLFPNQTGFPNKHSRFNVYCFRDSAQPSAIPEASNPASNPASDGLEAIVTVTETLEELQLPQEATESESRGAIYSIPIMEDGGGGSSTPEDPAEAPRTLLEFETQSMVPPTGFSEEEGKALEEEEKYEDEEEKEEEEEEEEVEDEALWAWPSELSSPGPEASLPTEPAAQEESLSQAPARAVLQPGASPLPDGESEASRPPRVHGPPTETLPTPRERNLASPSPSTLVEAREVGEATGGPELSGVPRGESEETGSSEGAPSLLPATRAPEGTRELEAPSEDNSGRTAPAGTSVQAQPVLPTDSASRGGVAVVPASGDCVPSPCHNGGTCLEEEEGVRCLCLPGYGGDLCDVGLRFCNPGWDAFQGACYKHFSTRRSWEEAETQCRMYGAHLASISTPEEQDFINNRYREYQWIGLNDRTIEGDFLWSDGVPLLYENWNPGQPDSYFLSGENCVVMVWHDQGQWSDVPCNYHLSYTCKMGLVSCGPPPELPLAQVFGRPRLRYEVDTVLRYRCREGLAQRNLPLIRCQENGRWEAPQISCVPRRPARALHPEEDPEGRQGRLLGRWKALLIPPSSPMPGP

T4: native bovine decorin, P21793
T4 chain: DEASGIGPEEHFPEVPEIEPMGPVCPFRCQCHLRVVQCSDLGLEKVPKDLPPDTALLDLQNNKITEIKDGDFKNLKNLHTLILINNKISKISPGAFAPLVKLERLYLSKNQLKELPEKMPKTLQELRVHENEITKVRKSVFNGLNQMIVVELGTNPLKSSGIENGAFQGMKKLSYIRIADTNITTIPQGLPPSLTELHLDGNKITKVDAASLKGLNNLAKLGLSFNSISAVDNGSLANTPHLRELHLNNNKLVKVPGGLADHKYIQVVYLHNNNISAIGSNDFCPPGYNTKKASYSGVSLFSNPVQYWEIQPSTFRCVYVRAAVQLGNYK

T5: recombinant human biglycan, P21810
T5 chain: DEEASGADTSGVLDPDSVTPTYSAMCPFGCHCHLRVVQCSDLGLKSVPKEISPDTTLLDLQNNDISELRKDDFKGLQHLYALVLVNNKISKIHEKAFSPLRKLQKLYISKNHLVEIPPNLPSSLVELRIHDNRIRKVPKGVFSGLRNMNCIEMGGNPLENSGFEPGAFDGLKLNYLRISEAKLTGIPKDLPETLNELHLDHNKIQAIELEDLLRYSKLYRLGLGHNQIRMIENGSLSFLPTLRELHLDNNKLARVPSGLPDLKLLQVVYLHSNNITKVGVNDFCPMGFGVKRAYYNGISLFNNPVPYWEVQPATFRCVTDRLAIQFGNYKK

T6: recombinant human decorin, P07585
T6 chain: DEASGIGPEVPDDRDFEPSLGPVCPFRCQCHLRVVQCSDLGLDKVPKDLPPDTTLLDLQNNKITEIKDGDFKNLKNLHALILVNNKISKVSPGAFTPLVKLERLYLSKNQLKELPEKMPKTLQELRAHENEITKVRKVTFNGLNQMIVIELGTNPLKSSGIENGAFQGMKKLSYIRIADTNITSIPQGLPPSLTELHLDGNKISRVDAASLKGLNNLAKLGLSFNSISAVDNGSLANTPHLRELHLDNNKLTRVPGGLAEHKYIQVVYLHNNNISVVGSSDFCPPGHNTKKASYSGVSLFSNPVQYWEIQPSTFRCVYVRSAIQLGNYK

B1: Borrelia burgdorferi HtrA (BB0104, BbHtrA), recombinant wild type mature protein (amino acids 38-474), His-tagged, made in E. coli (protein)
chain: EEKDNTVRALQDSFREVSKKILPSSVEVHATGVIKQSFPIPFFFFDMPEFDSERKSNWAGSGVIIGRDSQKKSLFYVVTNSHVVDKATELEVVSYDKKKHKAKLIGKDEKKDIALISFESDDATIKVADLGDSDKLEIGDWVMAVGSPFQFSFTVTAGIVSGLQRSANPNLQSRNLFIQTDAAINRGNSGGPLVNIKGEVIGINAWIASNSGGNIGLGFAIPVNNIKSTVDFFLKGKKIESAWLGISFYPLKTRDSEVLKSLGVESNDVSAAIIASLYPGSPAVKSGLRAGDIIMKVNGVSMSVFQDVTSYISDFYAGEKVNVEILRGNVKKNIEIVLAVRPKDKELSSSKMLPGFVVYPLVEDIKAQLNLRNWIKGVVVDYIDKNLASNIKMKSGDVILSVNSKSVSNLREFYDALEVGKNTYKILRGNDSFKITF
B2: Borrelia burgdorferi HtrA (BB0104, BbHtrA^S226A), recombinant inactive mutant, mature protein (amino (protein)
chain: B1 chain with S189A

Experiments:
[1] = target: β-casein (in 12% β-casein Zymogram Ready Gels, Bio-Rad)
[2] = target: recombinant human versican, P13611
[3] = target: T1, native bovine biglycan, P21809
[4] = target: recombinant human aggrecan (G1-IGD-G2 domains), P16112
[5] = target: T2, recombinant human E-cadherin, P12830
[6] = target: recombinant human neurocan, O14594
[7] = target: native bovine aggrecan, fully glycosylated, P13608
[8] = target: T3, recombinant human brevican, Q96GW7
[9] = target: native human plasma fibronectin, P02751
[10] = target: T4, native bovine decorin, P21793
[11] = target: T5, recombinant human biglycan, P21810
[12] = target: T6, recombinant human decorin, P07585

recombinant human aggrecan (G1-IGD-G2 domains), P16112, sequence (P16112 20-675): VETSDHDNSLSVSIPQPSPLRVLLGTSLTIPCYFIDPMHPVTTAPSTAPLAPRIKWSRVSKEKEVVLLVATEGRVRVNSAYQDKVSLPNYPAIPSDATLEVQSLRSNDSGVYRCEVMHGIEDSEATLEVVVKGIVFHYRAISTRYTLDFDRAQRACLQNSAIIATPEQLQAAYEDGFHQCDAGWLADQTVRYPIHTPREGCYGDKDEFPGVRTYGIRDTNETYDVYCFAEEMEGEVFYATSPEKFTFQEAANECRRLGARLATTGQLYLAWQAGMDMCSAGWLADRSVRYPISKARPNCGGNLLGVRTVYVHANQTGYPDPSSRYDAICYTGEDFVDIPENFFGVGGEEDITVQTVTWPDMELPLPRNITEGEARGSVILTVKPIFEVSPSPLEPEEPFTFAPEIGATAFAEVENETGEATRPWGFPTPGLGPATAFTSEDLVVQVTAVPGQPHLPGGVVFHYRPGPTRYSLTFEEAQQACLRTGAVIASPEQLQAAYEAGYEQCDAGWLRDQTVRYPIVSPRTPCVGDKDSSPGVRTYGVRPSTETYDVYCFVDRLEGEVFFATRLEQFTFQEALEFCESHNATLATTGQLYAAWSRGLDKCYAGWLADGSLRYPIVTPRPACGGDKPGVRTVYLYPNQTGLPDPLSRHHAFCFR
native bovine aggrecan, fully glycosylated, P13608, sequence (P13608 17-2364): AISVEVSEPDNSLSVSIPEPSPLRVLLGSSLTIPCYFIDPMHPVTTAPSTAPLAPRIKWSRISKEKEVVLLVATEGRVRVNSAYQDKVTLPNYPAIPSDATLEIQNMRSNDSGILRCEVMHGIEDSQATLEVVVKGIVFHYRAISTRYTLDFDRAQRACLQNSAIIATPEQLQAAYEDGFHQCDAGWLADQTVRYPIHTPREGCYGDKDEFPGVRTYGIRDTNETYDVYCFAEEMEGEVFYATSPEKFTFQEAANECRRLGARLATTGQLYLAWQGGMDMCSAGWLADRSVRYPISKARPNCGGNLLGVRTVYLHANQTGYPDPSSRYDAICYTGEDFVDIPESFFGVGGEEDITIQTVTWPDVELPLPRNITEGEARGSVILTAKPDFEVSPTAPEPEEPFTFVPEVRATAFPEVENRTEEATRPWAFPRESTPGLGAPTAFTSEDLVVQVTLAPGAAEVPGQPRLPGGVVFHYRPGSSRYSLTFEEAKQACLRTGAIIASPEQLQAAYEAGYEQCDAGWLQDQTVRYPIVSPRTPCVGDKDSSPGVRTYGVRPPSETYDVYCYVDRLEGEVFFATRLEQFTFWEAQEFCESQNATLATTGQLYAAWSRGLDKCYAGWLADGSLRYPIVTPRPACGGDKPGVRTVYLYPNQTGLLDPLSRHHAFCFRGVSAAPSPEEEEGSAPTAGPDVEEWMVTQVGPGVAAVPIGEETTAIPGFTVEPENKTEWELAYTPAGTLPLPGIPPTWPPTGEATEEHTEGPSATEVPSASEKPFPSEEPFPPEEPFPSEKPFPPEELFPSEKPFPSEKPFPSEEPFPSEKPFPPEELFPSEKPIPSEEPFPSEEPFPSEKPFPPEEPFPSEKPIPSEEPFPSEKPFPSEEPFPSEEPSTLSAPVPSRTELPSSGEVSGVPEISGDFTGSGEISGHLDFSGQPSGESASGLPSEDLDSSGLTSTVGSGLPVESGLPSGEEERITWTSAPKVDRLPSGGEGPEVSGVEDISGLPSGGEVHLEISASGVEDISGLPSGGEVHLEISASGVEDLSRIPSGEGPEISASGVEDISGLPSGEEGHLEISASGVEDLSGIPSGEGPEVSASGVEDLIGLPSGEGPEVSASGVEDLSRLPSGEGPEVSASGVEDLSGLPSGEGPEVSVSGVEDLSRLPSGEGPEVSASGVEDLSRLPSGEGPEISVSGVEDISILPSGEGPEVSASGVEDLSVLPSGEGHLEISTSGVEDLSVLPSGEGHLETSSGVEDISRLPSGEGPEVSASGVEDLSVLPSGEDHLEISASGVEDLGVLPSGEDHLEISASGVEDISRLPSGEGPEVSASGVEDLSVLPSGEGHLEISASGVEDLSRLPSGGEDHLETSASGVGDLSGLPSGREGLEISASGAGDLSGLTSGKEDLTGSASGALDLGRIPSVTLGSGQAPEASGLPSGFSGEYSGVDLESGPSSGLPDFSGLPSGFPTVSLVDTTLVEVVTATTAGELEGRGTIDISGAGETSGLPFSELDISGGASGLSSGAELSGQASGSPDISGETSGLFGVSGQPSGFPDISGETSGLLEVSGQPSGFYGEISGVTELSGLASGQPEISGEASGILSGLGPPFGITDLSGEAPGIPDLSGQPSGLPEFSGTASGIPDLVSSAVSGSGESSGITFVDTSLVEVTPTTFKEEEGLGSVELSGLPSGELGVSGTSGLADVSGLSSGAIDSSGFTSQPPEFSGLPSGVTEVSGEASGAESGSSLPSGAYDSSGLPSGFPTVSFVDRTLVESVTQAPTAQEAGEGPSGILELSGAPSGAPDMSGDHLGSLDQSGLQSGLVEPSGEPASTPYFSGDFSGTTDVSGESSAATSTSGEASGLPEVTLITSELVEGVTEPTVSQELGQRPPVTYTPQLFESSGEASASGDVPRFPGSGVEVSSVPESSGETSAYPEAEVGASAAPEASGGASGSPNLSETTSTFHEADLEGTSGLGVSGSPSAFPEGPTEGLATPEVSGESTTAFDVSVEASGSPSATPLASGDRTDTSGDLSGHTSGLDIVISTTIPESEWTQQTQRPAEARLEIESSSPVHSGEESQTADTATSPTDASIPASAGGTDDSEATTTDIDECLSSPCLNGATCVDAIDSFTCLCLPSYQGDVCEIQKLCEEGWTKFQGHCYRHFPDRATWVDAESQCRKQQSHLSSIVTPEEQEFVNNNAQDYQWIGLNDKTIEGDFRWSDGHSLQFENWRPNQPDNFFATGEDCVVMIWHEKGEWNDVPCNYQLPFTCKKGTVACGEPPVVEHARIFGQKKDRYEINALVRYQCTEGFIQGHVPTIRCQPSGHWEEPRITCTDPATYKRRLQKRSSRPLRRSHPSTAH
recombinant human neurocan, O14594, sequence (O14594 23-1321): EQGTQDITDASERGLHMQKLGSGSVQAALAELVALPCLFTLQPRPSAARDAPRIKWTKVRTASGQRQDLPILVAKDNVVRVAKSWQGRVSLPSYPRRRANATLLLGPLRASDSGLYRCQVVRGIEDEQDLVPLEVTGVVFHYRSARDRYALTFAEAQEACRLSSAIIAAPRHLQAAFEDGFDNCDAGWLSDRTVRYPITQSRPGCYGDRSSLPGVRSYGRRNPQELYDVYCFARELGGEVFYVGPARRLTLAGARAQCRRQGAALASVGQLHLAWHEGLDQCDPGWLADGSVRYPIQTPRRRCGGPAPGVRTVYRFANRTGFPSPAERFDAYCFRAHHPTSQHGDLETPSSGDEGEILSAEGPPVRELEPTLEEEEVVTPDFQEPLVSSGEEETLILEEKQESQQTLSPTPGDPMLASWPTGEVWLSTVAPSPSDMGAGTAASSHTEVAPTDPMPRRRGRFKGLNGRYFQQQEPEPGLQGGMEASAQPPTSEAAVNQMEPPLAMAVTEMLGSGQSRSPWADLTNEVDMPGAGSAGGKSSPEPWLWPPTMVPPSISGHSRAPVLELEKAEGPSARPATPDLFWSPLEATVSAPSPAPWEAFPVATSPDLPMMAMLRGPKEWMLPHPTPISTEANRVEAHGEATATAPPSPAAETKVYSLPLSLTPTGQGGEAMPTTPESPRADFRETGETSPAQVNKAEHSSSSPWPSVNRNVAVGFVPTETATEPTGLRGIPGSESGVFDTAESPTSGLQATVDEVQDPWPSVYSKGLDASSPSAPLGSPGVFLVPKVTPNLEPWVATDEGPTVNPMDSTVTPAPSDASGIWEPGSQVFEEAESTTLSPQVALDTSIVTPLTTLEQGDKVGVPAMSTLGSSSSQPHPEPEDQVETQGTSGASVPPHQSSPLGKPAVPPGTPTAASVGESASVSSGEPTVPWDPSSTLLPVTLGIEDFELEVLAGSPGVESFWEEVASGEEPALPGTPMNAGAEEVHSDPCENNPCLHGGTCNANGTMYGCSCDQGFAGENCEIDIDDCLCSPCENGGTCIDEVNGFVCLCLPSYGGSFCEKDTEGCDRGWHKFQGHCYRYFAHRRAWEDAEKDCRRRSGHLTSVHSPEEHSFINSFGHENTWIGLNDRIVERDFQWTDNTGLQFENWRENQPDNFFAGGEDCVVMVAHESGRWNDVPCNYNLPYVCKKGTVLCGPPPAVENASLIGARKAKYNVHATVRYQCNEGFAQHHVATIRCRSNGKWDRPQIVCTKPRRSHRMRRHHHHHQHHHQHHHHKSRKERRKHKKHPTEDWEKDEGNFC

Protein	β-casein zymography [1]	Proteolytic activity [2]	Proteolytic activity [3]	Proteolytic activity [4]	Proteolytic activity [5]	Proteolytic activity [6]	Proteolytic activity [7]	Proteolytic activity [8]	Proteolytic activity [9]	Proteolytic activity [10]	Proteolytic activity [11]	Proteolytic activity [12]	Proteolytic activity (native bovine casein)	proteolytic fragments on silver-stained SDS-PAGE [4]
B1	Recombinant BbHtrA was proteolytically active against β-casein as evidenced by clearing around the protein band	+	+	+	+	+	+	+	+	+	+	+	+	–
B2	–	–	–	–	–	–	–	–	–	–	–	–	–	incubation of recombinant aggrecan (FIG. 4A, lane 1) alone or with the inactive mutant (FIG. 4A, lane 6) failed to generate these fragments
